Laboratory results published in US20170129940A1 (INSTITUTE FOR RESEARCH IN BIOMEDICINE, published 2017).

T1: hCMV UL128 (expressed in HEK293T cells) (human cytomegalovirus, UniProt P16837 28-171)
T1 sequence: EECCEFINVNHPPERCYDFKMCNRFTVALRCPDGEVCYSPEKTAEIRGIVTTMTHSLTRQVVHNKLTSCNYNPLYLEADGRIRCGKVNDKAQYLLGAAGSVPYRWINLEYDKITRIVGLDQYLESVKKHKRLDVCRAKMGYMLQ

B1: 15D8 (antibody, V domains shown)
VH: EVQLVQSGAEVKKPGESLKISCQASGYSFTNYWIAWVRQMPGKGLEWMGIIYPGDSDIKYSPSFRGQVTISADKSISNAFLQWRSLRASDTAMYYCARHAIRGDGFDYWGQGTLVTVSS
VL: SYELTQPPSVSVSPGQTATITCSGDKLGEKYACWYQQKPGQSPVLVMYQDTKRPSGIPERFSGSNSGNTATLTISGTRAMDEADYYCQAWDTNTVIFGGGTKLTVL
B2: 8I21 (antibody, V domains shown)
VH: LVELVESGGGVVQPGRSLRLSCAASGFTFSSDGMHWVRQSPGRGLEWVAFISSDGSTPYYADSVKGRFTISRDNSKNTLYLQMNSLRAEDTAMYFCAKDWALFRWLRTFDHWGQGTLVTVSS
VL: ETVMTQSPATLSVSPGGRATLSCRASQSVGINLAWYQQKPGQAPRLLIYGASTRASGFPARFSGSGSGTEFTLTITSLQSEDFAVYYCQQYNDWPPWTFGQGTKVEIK
B3: 3G16 (antibody, V domains shown)
VH: QSALTQPASVSGSPGESITISCTGTISDVGAYNSVSWYQQHSGTAPELIIYDVTNRPAGVSSRFSGSKSGNTASLTISWLQSEDEAEYYCSSYTTSDTYVFGSGTQVTVL
V domain: RAQLVQSAAEMKNPGASVKVSCEASGYTFTGYYVHWMRQAPGQGLEWMGWINPMTGATKSPQKFQGRVTMTRDTSTTATHIELTRLRSDDSAVFFCARGGPTSTRITGKRHFDLWGRGTLITVAS
B4: 7H3 (antibody, V domains shown)
VH: QVQLVQSGAEVKNPGASVKVSCKASGYTFTDYYIHWVRQAPGQGLEWMGWFNPNSGGTNFVQNFQGRVTMTRDTSISTAYMELSRLRSDDTAMYYCAKDSAKTASAYYGLNFFYYGMDVWGQGTTVTVSS
VL: QSVLSQPPSASGTPGQRVTISCSGSSSNIGKNYVYWYQQVPGTAPKLLMFKNNQRPSGVPDRFSGSKSGTSASLAISGLRSEDEADYYCSAWDGSLSRPLFGGGTKVTVL
notes: human IgG; also called 7H3-biotin
B5: 5F1 (antibody, V domains shown)
VH: AVQLVESGGGLAQPGRSLRLSCKVSGFTFSSYEMNWVRQAPGKGLEWIAYIDFTGSTIYYADSVKGRFTISRDTARNSLYLQMNKLRVEDTAVYYCVRDAGRWGTSWYYFDYWGQGTLVTVSS
VL: QSVLTQPPSVSGAPGQRVTISCTGLSSNIGAGYDIHWYQQIPGKAPKLLIYGNNNRPSGVPDRFSGSKSGTSVSLAITGLQAEDEADYYCQSYDSSLNGWVFGGGTRLTVL
notes: human IgG; also called 5F1-biotin
B6: 2B11 (antibody, V domains shown)
VH: AVRLVESGGGLAQPGRSLRLSCQVSGFTFGSYEMNWVRQAPGKGLEWIAYIDFTGSTIYYADSVKGRFTISRNTARNSLYLQMNSLRVEDTAVYYCVRDAGRWGTSWYYFDYWGQGTRVTVSP
VL: QSVLTQPPSVSGAPGQRVTISCTGISSNIGAGYDIHWYQQIPGKAPKLLVYGNNNRPSGVPDRFSGSKSGTSVSLAITGLQVEDEADYYCQSYDNSLNGWVFGGGTRLTVL
notes: human IgG; also called 2B11-biotin
B7: 10C6 (antibody, V domains shown)
VH: AVQLVESGGGLAQPGRSLRLSCKVSGFSFSNFEMNWVRQAPGKGLEWIAYIDFTGSTIYYSDSVKGRFTISRDTARNSLYLQMNKLRVEDTAVYYCVRDAGRWGTSWYYFDYWGQGTLVTVSS
VL: QSVLTQPPSVSGAPGQRVTISCTGLSSNIGAGYDIHWYQQIPGKAPKLLIYGNNNRPSGVPDRFSGSKSGTSVSLAITGLQAEDEADYYCQSYDSSLNGWVFGGGTRLTVL
notes: human IgG; also called 10C6-biotin
B8: 6B4 (antibody, V domains shown)
VH: QVQLVESGGGVVQPGRSLRLSCAASGFRFNEFNMHWVRQAPGKGLEWVAVISIDGRHKYNADSVEGRFTISRDNSRNTLYLQMNSLRVEDTALYYCVTDGKAVDGFSGILEFWGQGTPVTVST
VL: EIVLTQSPATLSLSPGERATLSCWASQSVGGYLAWYQQKPGQAPRLLIYDASIRATGIPARFSGSGSGTHFTLTINSLEPEDFAVYYCQQRNNWPPLTFGGGTKVEIK
notes: human IgG; also called 6B4-biotin
B9: 4H9 (antibody, V domains shown)
VH: AVQLVESGGGLVRPGGSLRLSCAASGFTFSSHEMHWVRQAPGKGLEWLSYIDFTGSIIYYADSVRGRFTISRDNTKKSLFLQMNSLRDEDTALYYCARDGGRWGTSWYYFDYWGQGVLVTVSS
VL: QSVLTQPPSVSGAPGQRVTITCTGSSSNFGAGYDGHWYQQLPGTAPKLLIYGSNRPSGVPDRFSGSKSGTSVSLAITGLQADDEADYYCQSYDSSLSAWVFGGGTKLTVL
notes: human IgG; also called 4H9-biotin

Experiments:
[1] = molecular target: T1, hCMV UL128 (expressed in HEK293T cells); assay: cell-based or functional assay
[2] = molecular target: T1, hCMV UL128 (expressed in HEK293T cells); assay: cell-based or functional assay; remark: listed apart in the source
[3] = molecular target: T2, hCMV gH + gL + UL128 + UL130 (co-expressed in HEK293T cells) (human cytomegalovirus, UniProt P12824 24-743; P16832 31-278; P16837 28-171; P16772 1-214); assay: cell-based or functional assay
[4] = molecular target: T2, hCMV gH + gL + UL128 + UL130 …; assay: cell-based or functional assay; remark: listed apart in the source
[5] = molecular target: T3, hCMV gH (expressed in HEK293T cells) (human cytomegalovirus, UniProt P12824 24-743); assay: cell-based or functional assay
[6] = molecular target: T3, hCMV gH (expressed in HEK293T cells); assay: cell-based or functional assay; remark: listed apart in the source
[7] = molecular target: T4, hCMV gB (expressed in HEK293T cells) (human cytomegalovirus, UniProt P06473 32-906); assay: competitor: 6B4-biotin; cell staining
T4 construct: whole, on cells; also called envelope glycoprotein B; UL55

[8] = molecular target: T4, hCMV gB (expressed in HEK293T cells); assay: competitor: 5F1-biotin; cell staining
[9] = molecular target: T4, hCMV gB (expressed in HEK293T cells); assay: cell-based or functional assay
[10] = molecular target: T4, hCMV gB (expressed in HEK293T cells); assay: competitor: 7H3-biotin; cell staining
[11] = molecular target: T4, hCMV gB (expressed in HEK293T cells); assay: competitor: 10C6-biotin; cell staining
[12] = molecular target: T4, hCMV gB (expressed in HEK293T cells); assay: cell-based or functional assay; remark: listed apart in the source
[13] = molecular target: T4, hCMV gB (expressed in HEK293T cells); assay: competitor: 2B11-biotin; cell staining
[14] = molecular target: T4, hCMV gB (expressed in HEK293T cells); assay: competitor: 4H9-biotin; cell staining
[15] = molecular target: T4, hCMV gB (expressed in HEK293T cells); assay: cell-based or functional assay; remark: listed apart in the source

T4 sequence (P06473 32-906 limits assumed): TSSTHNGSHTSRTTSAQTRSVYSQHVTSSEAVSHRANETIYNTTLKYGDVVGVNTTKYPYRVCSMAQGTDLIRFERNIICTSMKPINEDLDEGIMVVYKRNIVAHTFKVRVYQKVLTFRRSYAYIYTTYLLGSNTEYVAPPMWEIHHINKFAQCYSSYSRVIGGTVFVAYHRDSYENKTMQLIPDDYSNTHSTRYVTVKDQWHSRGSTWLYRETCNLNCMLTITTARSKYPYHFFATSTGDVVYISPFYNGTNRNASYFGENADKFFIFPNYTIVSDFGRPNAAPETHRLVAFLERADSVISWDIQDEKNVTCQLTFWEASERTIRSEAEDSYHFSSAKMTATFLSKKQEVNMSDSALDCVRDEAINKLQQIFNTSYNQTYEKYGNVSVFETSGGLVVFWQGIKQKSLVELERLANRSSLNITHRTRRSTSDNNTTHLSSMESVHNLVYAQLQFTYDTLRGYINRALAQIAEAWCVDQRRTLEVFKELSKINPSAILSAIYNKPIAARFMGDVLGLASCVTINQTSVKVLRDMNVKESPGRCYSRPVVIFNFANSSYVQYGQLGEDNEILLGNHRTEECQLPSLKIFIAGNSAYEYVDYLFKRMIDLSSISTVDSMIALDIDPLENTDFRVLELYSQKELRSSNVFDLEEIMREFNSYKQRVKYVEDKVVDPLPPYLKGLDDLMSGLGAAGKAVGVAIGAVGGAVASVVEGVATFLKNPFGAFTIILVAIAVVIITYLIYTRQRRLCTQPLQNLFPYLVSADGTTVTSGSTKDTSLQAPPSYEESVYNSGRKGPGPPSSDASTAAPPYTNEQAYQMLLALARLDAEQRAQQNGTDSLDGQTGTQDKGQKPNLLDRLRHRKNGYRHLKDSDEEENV

Binder	Inhibition of binding (%) [7]	Inhibition of binding (%) [8]	50% Neutralization ARPE [9]	50% Neutralization MRC-9 [9]	Inhibition of binding (%) [10]	Inhibition of binding (%) [11]	50% Neutralization BM-MSC [12]	50% Neutralization Mo-DC [12]	Inhibition of binding (%) [13]	Inhibition of binding (%) [14]	90% Neutralization ARPE [15]	90% Neutralization MRC-9 [15]	also measured
B1													50% Neutralization ARPE [1]: < 0.001 µg/mL; 50% Neutralization MRC-9 [1]: > 2 µg/mL; 90% Neutralization ARPE [2]: 0.008 µg/mL; 90% Neutralization MRC-9 [2]: > 10 µg/mL
B2													50% Neutralization ARPE [3]: < 0.01 µg/mL; 50% Neutralization MRC-9 [3]: > 2 µg/mL; 90% Neutralization ARPE [4]: 0.03 µg/mL; 90% Neutralization MRC-9 [4]: > 10 µg/mL
B3													50% Neutralization ARPE [5]: ≤ 2 µg/mL; 50% Neutralization MRC-9 [5]: ≤ 2 µg/mL; 90% Neutralization ARPE [6]: 0.3 µg/mL; 90% Neutralization MRC-9 [6]: 1 µg/mL
B4	0%	0%	> 2 µg/mL	≤ 2 µg/mL	100%	0%	2 µg/mL	0.06 µg/mL	0%	0%	0.6 µg/mL	3 µg/mL	
B5	0%	100%	≤ 2 µg/mL	≤ 2 µg/mL	0%	100%	0.3 µg/mL	0.05 µg/mL	100%	100%	0.1 µg/mL	0.5 µg/mL	
B6	0%	100%			0%	100%			100%	100%	0.2 µg/mL	0.75 µg/mL	
B7	0%	100%	≤ 2 µg/mL	≤ 2 µg/mL	0%	100%	0.3 µg/mL	0.02 µg/mL	100%	100%	0.2 µg/mL	0.75 µg/mL	
B8	100%	0%	≤ 2 µg/mL	≤ 2 µg/mL	0%	0%	2 µg/mL	0.11 µg/mL	0%	0%	0.15 µg/mL	1 µg/mL	
B9	0%	100%	≤ 2 µg/mL	≤ 2 µg/mL	0%	100%			100%	100%	0.4 µg/mL	10 µg/mL	
